PMC4063869, “Structure of CbpA J-Domain Bound to the Regulatory Protein CbpM Explains Its Specificity and Suggests Evolutionary Link between CbpM and Transcriptional Regulators” (PLoS ONE, 2014)

Columns and labels:
[1] = target: Klebsiella pneumoniae CbpM (residues 2-101) (Klebsiella pneumoniae (strain ATCC 700721/MGH 78578)); assay: crystal structure; K. pneumoniae CbpM with E. coli CbpA^Jdom, complex separated from excess CbpA^Jdom on Superdex 75; hanging drop, 0.1 M HEPES pH 7, 20% (w/v) PEG 8K; 1.87 Å
[2] = target: the molecule itself; assay: as above
[3] = target: T1, CbpM (residues 2-101), species not named for the experiment ( (E. coli K-12 or K. …, UniProt P63264 2-101)); assay: SPR; CbpM immobilised, DnaJ^Jdom variants injected (50 µL/min, 120 s); ProteOn XPR36, 25°C, 50 mM sodium phosphate pH 7.4, 100 mM NaCl, 1 mM DTT, 0.005% Tween 20; steady-state equilibrium fit (one site); settings: both partners purified
T1 construct: CbpM residues 2-101; the immobilisation is told there; also called immobilized CbpM; source: E. coli Rosetta pLysS, purified (Ni-NTA, tag cleaved, amylose resin, size exclusion); not shown: His-MBP, N-terminal, cleaved
T1 sequence: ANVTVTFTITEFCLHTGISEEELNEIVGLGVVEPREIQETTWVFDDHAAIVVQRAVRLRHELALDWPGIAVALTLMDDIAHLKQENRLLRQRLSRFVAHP

Which stoichiometry N (binder:target chains (printed 2:2)) [1] does the source give for “J-domain of E. coli CbpA (CbpA^Jdom) (domain or fragment)” here?
Its stoichiometry N (binder:target chains (printed 2:2)) is 1.

B1: Klebsiella pneumoniae CbpM (residues 2-101) (natural protein, UniProt A0A378AXB4 2-101, looked up)
chain: ATVTVTFTITELCLRTGVSEEELTEIVGLGMIEPHQPQADTWLFDDSAVTIVHRAVRLRNELELDWPGIAVALTLLDENARLTRENRLLQQRLARFLAHG
notes: CbpM of Klebsiella pneumoniae (strain ATCC 700721/MGH 78578), residues 2-101, amplified from genomic DNA; Forms a parallel coiled-coil dimer in the crystal; each CbpA J-domain touches both subunits; also called K. pneumoniae CbpM; Klebsiella CbpM; source: E. coli Rosetta pLysS, purified (Ni-NTA, tag cleaved, amylose resin, size exclusion); not shown: His-MBP, N-terminal, cleaved
How did the “stoichiometry N” value [2] turn out when B1 was run?
Its value is 2.

B2: Chimeric DnaJ^Jdom(25-47): DnaJ J-domain with the central region Y25-F47 replaced by that of CbpA^Jdom (domain or fragment, E. coli, UniProt P08622 2-79, looked up)
chain: AKQDYYEILGVSKTAEEREIRKAYRRLARKYHPDVSKEPDAEARFKEIKEAYEVLTDSQKRAAYDQYGHAAFEQGGM
notes: DnaJ of E. coli, J-domain, residues 2-79, with residues 25-47 replaced by residues 25-46 of E. coli CbpA; also called chimera DnaJ^Jdom (25-47); source: E. coli Rosetta pLysS, purified (glutathione sepharose, tag cleaved, size exclusion); not shown: GST, N-terminal, cleaved
B2 was tested. Which Kd [3] did it give?
Its Kd is 26 µM.
